The target of the assay is w.t. (UniProt P08581). In words: ELISA.

DN30 had a Kd of 0.446 nM.

The Kd is the constant that tells how readily two partners part at equilibrium. Read a high Kd as weaker binding.

(Values after US20210070868A1.)
